This note sets out measurements from patent EP3007726B1.

The target of this assay is tau of P301L tau transgenic mice (4R2N human tau mutated at P301L) (human) (UniProt P10636). The assay can be described thus: free-tau ELISA on CSF of P301L mice treated with IPN002, against control IgG (Figure 33).
Chain of UniProt P10636 (P10636 other isoform, or with tags, fused parts or gaps P301L P301L P301L P301L limits assumed): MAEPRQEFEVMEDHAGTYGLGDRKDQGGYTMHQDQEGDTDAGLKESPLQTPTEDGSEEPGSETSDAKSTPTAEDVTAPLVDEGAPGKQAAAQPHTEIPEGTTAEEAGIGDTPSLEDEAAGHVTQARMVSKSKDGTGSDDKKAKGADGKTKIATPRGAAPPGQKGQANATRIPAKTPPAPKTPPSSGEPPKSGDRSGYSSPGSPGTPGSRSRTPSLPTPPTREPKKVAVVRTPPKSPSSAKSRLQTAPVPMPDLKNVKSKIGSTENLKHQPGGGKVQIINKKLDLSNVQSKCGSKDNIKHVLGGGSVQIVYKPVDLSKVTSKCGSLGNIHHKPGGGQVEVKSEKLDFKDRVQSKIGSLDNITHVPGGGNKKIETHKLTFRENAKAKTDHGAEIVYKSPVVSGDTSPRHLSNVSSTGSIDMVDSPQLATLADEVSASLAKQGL

B1: IPN002 (antibody, V domains shown)
VH: EVHLVESGGALVKPGGSLKLSCAASGFSFSKYGMSWVRQTPDKRLEWVATISSSGSRTYYPDSVKGQFTISRDNAKNTLYLQMSSLKSEDTAMYYCSISWDGAMDYWGQGTSVTVSS
VL: DVLMTQTPLSLPVSLGDQASISCKSSQSIVHSNGNTYLEWYLQKPGQSPKLLVYKVSNRFSGVPDRFSGSGSGTDFTLKISRVEAEDLGTYYCFQGSLVPWAFGGGTKLEIK
Molecule B1 yielded a reduction in levels of the Free Tau (of IPN002) signal in CSF of 96%.
